From patent publication US7820375 (INSTITUT NATIONAL DE LA SANTE ET DE LA RECHERCHE MEDICALE …, dated 2010)

B1: Act-CRMP5 (complete human CRMP 5 protein fused to NLS-B42-HA, prey) (other, UniProt Q9BPU6 1-564, looked up, not shown: large carriers)
chain: MLANSASVRILIKGGKVVNDDCTHEADVYIENGIIQQVGRELMIPGGAKVIDATGKLVIPGGIDTSTHFHQTFMNATCVDDFYHGTKAALVGGTTMIIGHVLPDKETSLVDAYEKCRGLADPKVCCDYALHVGITWWAPKVKAEMETLVREKGVNSFQMFMTYKDLYMLRDSELYQVLHACKDIGAIARVHAENGELVAEGAKEALDLGITGPEGIEISRPEELEAEATHRVITIANRTHCPIYLVNVSSISAGDVIAAAKMQGKVVLAETTTAHATLTGLHYYHQDWSHAAAYVTVPPLRLDTNTSTYLMSLLANDTLNIVASDHRPFTTKQKAMGKEDFTKIPHGVSGVQDRMSVIWERGVVGGKMDENRFVAVTSSNAAKLLNLYPRKGRIIPGADADVVVWDPEATKTISASTQVQGGDFNLYENMRCHGVPLVTISRGRVVYENGVFMCAEGTGKFCPLRSFPDTVYKKLVQREKTLKVRGVDRTPYLGDVAVVVHPGKKEMGTPLADTPTRPVTRHGGMRDLHESSFSLSGSQIDDHVPKRASARILAPPGGRSSGIW
B2: LexA (bait vector without insert) (other)
chain: MKALTARQQEVFDLIRDHISQTGMPPTRAEIAQRLGFRSPNAAEEHLKALARKGVIEIVSGASRGIRLLQEEEEGLPLVGRVAAGEPLLAQQHIEGHYQVDPSLFKPNADFLLRVSGMSMKDIGIMDGDLLAVHKTQDVRNGQVVVARIDDEVTVKRLKKQGNKVELLPENSEFKPIVVDLRQQSFTIEGLAVGVIRNGDWL
notes: range 1-202

Columns and labels:
[1] = target: T1, LexA-CRMP5 (complete human CRMP 5 protein fused to LexA, bait) (human, UniProt P0A7C2 1-202; Q9BPU6 1-564); experiment: yeast two-hybrid by conjugation, LexA bait and Act prey, lacZ reporter (X-gal)
T1 sequence (looked up): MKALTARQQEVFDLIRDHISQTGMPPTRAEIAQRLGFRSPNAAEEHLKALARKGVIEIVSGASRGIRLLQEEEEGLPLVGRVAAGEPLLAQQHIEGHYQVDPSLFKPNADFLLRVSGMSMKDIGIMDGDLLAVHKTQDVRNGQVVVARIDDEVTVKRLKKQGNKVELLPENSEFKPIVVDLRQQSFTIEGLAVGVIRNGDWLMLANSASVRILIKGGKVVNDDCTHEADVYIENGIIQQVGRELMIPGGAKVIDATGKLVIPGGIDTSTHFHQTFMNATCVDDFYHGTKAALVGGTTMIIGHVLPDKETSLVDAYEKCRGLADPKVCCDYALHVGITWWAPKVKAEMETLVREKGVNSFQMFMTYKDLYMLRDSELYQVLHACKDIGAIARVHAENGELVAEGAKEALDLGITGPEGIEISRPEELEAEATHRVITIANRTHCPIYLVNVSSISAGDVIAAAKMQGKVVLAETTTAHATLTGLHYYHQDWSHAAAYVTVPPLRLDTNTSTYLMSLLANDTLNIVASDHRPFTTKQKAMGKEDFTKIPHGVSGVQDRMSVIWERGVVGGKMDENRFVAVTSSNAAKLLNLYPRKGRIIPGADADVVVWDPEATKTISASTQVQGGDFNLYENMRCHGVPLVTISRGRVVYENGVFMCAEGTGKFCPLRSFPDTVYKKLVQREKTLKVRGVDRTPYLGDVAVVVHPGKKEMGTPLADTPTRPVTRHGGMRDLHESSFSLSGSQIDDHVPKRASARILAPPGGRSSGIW

[2] = target: B1; experiment: yeast two-hybrid by conjugation, lacZ reporter (X-gal)

Binder	binding result [1]	binding result [2]
B1	binds	–
B2	–	no binding
